# Data reported in patent publication US20170029530A1 (AbbVie / Abbott, published 2017).
# “And” between values parts separate entries of the source, which are not always exact repeats. Equal values may be shown once.
# T1: rat DPEP3 ECD with histidine tag (rat, UniProt Q5U2X4 36-459, limits assumed)
# T1 construct: also called rDPEP3-His; ratDPEP3-His; not shown: histidine tag
# T1 sequence: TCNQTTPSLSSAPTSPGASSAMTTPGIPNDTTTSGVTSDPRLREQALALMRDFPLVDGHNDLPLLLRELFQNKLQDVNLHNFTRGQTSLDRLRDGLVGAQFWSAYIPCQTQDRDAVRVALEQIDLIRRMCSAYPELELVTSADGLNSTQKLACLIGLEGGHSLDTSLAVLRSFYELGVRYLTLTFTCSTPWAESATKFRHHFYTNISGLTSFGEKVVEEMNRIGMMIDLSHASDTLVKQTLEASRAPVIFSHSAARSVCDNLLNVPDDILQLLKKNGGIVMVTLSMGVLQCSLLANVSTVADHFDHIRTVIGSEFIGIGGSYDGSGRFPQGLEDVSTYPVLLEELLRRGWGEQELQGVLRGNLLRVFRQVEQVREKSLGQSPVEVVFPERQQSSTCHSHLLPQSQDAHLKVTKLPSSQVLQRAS
# T2: cDPEP3 (Macaca fascicularis, UniProt Q4R7M2)
# T2 construct: extracellular domain; also called cynomolgus DPEP3-His; cynomolgus DPEP3 ECD with histidine tag
# T2 sequence (single chain, looked up): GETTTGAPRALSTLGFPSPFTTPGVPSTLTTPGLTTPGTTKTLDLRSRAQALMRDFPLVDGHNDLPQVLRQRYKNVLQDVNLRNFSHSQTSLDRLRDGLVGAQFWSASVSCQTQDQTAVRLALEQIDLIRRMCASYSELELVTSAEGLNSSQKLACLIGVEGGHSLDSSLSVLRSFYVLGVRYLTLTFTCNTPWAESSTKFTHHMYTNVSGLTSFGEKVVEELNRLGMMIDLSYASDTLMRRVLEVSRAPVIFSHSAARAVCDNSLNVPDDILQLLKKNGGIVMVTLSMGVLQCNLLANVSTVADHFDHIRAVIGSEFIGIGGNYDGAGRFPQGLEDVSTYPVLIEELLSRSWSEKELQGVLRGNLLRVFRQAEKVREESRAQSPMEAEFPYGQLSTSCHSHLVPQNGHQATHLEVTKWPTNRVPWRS
# T3: mDPEP3 (limits assumed)
# T3 construct: also called mouse DPEP3-His; mouse DPEP3 ECD with histidine tag
# T3 single chain: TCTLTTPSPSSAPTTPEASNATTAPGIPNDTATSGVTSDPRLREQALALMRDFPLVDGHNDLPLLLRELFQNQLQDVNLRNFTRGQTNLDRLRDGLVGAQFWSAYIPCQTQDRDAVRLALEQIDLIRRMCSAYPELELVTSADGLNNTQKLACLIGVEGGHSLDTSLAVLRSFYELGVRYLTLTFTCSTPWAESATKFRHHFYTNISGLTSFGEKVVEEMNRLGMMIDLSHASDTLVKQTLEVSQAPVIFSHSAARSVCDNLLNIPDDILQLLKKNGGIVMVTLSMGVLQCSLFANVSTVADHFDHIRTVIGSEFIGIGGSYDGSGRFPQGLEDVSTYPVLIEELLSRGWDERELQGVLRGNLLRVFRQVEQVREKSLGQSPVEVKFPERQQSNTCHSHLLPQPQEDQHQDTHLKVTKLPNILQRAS
# T4: hDPEP3-ECD-His (human, UniProt Q9H4B8 36-463)
# T4 construct: also called hDPEP3-His; monomeric hDPEP3-His antigen; not shown: histidine tag
# T4 sequence: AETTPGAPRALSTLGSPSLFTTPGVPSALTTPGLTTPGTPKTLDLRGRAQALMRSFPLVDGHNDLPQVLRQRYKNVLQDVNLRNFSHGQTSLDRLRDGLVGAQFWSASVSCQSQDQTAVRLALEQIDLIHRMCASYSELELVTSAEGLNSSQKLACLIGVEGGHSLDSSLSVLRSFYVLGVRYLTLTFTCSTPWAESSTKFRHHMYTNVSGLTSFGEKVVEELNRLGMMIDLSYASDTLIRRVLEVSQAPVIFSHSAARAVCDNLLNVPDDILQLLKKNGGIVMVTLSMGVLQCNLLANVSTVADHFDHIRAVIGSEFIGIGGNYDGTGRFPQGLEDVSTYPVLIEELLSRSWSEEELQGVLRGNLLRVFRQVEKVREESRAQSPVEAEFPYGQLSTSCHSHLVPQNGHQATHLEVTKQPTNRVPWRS
# Legend:
# [1] = target: T1, rat DPEP3 ECD with histidine tag; assay: ELISA, coated antigen
# Procedure: (§1) The anti-DPEP3 antibodies were screened by ELISA for cross-reactivity with mouse, rat and cynomolgus DPEP3 and for cross reactivity to hDPEP2, the closest DPEP3 family member. ELISA was conducted as follows. Plates were coated with purified mouse, rat or cynomolgus DPEP3-His or hDPEP2-His at 0.3 μg/mL in 0.2 M carbonate-bicarbonate buffer, pH 9.4 overnight at 4° C. The protein solution was removed and the wells were blocked with 1% (w/v) BSA in PBS (PBSA), 100 μL/well for 1 hour at 37° C. Anti-DPEP3 antibody or a mouse isotype control antibody was then added at 1 μg/mL in 50 μL PBSA for 1 hour at room temperature. After washing with water, 50 μL/well HRP-labeled goat anti-mouse IgG antibody diluted 1:10,000 in PBSA was added for 30 min at room temperature. The plates were washed and developed by the addition of 40 μL/well of the TMB substrate solution (Thermo Scientific) at room temperature. An equal volume of 0.2 M H₂SO₄ was added to stop substrate development. The samples were then analyzed by spectrophotometer at OD 450. […] The cross reactivity results for exemplary DPEP3-specific antibodies can be seen in FIG. 4.
# [2] = target: T5, hDPEP2 ECD with histidine tag (human, UniProt Q9H4A9 33-463); assay: ELISA, coated antigen
# T5 construct: also called hDPEP2-His; not shown: histidine tag
# Procedure: as §1
# cDPEP3 = target: T2, cDPEP3; assay: ELISA, coated antigen
# Procedure: as §1
# mDPEP3 = target: T3, mDPEP3; assay: ELISA, coated antigen
# Procedure: as §1
# hDPEP3-ECD-His = target: T4, hDPEP3-ECD-His; assay: BLI ForteBio RED, 200 nM hDPEP3-His, estimated grade
# Procedure: The affinity of the antibodies for hDPEP3-His was qualitatively determined from kinetics curves generated with a ForteBio RED as follows. Anti-DPEP3 antibodies were immobilized onto anti-mouse Fc capture biosensors with a contact time of 3 mins. and a flow rate of 1000 rpm. The captured antibody loading from baseline was constant at 0.3-1 units. Following antibody capture and 30 second baseline, the biosensors were dipped into a 200 nM solution of hDPEP3-His for a 4 min. association phase followed by a 3 min. dissociation phase at a shaking rate of 1000 rpm. The biosensors were regenerated by dipping into 10 mM glycine, pH 1.7 following each cycle. The data was processed by subtracting a control mouse IgG surface response from the specific antibody response and data was truncated to the association and dissociation phase. The association and dissociation curves were used to qualitatively estimate the affinities of selected antibodies. […] A designation of “ND” means that the estimated KD was not determined.
# T5 sequence (Q9H4A9 33-463): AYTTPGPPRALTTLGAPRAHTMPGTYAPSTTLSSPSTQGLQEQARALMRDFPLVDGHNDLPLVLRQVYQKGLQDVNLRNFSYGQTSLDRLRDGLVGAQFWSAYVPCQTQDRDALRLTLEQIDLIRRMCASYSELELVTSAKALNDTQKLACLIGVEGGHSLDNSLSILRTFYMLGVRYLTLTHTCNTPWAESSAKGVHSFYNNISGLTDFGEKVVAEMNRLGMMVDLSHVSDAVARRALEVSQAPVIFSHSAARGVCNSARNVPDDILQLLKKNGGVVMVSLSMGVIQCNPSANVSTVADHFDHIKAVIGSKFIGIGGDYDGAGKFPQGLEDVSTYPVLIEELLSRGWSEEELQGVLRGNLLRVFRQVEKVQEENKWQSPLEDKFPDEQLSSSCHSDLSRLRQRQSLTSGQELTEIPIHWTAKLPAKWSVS
binding result [1],binding result [2],binding result (cDPEP3),binding result (mDPEP3),Kd (hDPEP3-ECD-His),Binder
no binding (tested: 1 ug/mL),no binding (tested: 1 ug/mL),no binding (tested: 1 ug/mL),no binding (tested: 1 ug/mL),< 5 nM,"SC34.5 (antibody, mouse IgG1, V domains shown, also called SC34.05) VH: EVQLQQSGPELVKPGASMKISCKASGYSFTGYTMNWVKQSHGKNLEWIGLIYPYNDDTRYKQKFKGKATLTVDKSSSTAYMELLSLTSEDSAVYYCTRGYYGSPYFDVWGAGTTVTVSS VL: DIVMTQFPSSLAMSVGQKVTMNCKSSQSLLNSSNQKNYLAWFQQKPGQSPKLLVYFASTRESGVPDRFLGSGSGTDFTLTISSVQAEDLADYFCQQHYSTPFTFGSGTKLEIK"
no binding (tested: 1 ug/mL),no binding (tested: 1 ug/mL),no binding (tested: 1 ug/mL),no binding (tested: 1 ug/mL),< 5 nM,"SC34.6 (antibody, mouse IgG1, V domains shown, also called SC34.06) VH: EVQLQQSGPELVKPGTSMKISCKASGYSFTGYTMNWVKQSHGKNLEWIGLIYPYNDDTRYNRKFKGKATLTVDKSSNTAYMELLSLTSVDSAVCYCARGSYGSPFFDVWGAGTTVTVSS VL: not shown"
no binding (tested: 1 ug/mL),no binding (tested: 1 ug/mL),no binding (tested: 1 ug/mL),no binding (tested: 1 ug/mL),< 5 nM,"SC34.71 (antibody, mouse IgG2a, V domains shown) VH: QVSLKESGPGILQPSQTLSLTCSFFGFSLSTSSMGVGWIRQPSGKGLEWLANIWWDNNKYYNAALKSRLTISKDTSKNQVFLNIASVDTTDTATYYCARIESYYSNRAWFPYWGRGTLVTVSA VL: DIVMTQSQKFMSTSVGDRVSITCKASQNVRTAVAWYQQKPGQSPKTLIYLASNRHTGVPDRFTGSGSGTDFTLTISYVQSEDLADYFCLQHLNYPWTFGGGTKLEIK"

# The next lines start with the binder.
Binder,binding result [1],binding result [2],binding result (cDPEP3),binding result (mDPEP3),Kd (hDPEP3-ECD-His)
"SC34.78 (antibody, mouse IgG1, V domains shown) VH: DVQLQESGRGLVKPSQSLSLTCTVTGYSLTSDFAWNWIRQFPGNKLEWMGYIRYSGTTSYNPSLKSRISITRDTSKNQFFLQLNSVTTEDTATYYCGYGNYGYAMDYWGQGTSVTVSS VL: DIMMTQSPATLSVTPGDRVSLSCRASQSIGAYLHWYQQKSHESPRLLIKYVSQSISGIPSRFSGSGSGSDFTLSINSVEPEDVGVYYCQNGHSFPLTFGAGTKLELK",no binding (tested: 1 ug/mL),no binding (tested: 1 ug/mL),no binding (tested: 1 ug/mL),no binding (tested: 1 ug/mL),> 10 nM
"SC34.39 (antibody, mouse IgG2a, V domains shown) VH: QVQLQQSGAELMKPGASVKISCKATGYTFSNYWIEWVKQRPGHGLEWIGEILPGSDSTYFNEKFKGKATFTADTSSNTAYMQLSSLTSEDSAVYYCTIRSAAYYSNPEWFAYWGQGTLVTVSA VL: QIVLTQSPAIMSASQGERVTMTCTASSSVSSNYLHWYQQKPGSSPKLWIYSTSHLASGVPVRFSGSGSGTSYSLTISSMEAEDAATYYCHQYHRSPYTFGGGTKLEIK",no binding (tested: 1 ug/mL),no binding (tested: 1 ug/mL),no binding (tested: 1 ug/mL),no binding (tested: 1 ug/mL),< 5 nM
"SC34.90 (antibody, mouse IgG2a, V domains shown) VH: QVQLQQSGAELMKPGASVKISCKATGYTFSYYWIEWVKQRPGHGLEWIGEILPGSDTTYYNEKFKGKATFTADTSSNTAYMQLSSLTSEDSAVYYCTIRRAAYYSNPEWFAYWGQGTLVTVSA VL: QIVLTQSPAIMSASQGERVTMTCTASSSVSSSYLHWYQQKPGSSPKLWIYSTSNLASGVPVRFSGSGSGTSYSLTISSMEAEDAATYYCHQYHRSPYTFGGGTKLEIK",no binding (tested: 1 ug/mL),no binding (tested: 1 ug/mL),no binding (tested: 1 ug/mL),no binding (tested: 1 ug/mL),≥ 5 nM and ≤ 10 nM
